Assay results published in patent US7179464 (Kyowa Kirin, dated 2007).
Each block holds one binder with its values, some of them ahead of it.

How the values were obtained:
[1] = target: T1, human IL-5R α chain expressed on cells (human, UniProt Q01344 21-420); assay: flow cytometry on CTLL-2(h5R) cells, antibody at 10 µg/ml
T1 construct: whole, on cells; also called hIL-5R α; CTLL-2(h5R)
T1 sequence (looked up): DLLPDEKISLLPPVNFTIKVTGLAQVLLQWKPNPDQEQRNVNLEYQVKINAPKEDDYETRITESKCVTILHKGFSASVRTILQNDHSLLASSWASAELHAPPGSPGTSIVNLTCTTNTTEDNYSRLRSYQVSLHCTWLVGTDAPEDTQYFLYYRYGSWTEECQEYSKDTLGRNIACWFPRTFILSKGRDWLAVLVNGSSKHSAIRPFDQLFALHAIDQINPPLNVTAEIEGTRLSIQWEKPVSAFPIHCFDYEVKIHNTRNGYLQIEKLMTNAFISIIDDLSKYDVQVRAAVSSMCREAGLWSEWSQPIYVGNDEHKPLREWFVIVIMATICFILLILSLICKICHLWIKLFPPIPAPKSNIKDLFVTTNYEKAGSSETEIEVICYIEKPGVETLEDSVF
Method: (§1) Briefly, 5 ×10^5 cells obtained by transfecting a human IL-5R gene into CTLL-2 cells (ATCC TIB 214) [hereinafter referred to as "CTLL-2(h5R)"] [J. Exp. Med., 177, 1523 (1993)] or 5 ×10^5 CTLL-2 cells as a control were suspended in an immunocyte staining buffer (PBS containing 1% BSA, 0.02% EDTA and 0.05% sodium azide) and dispensed into a round bottom 96-well plate (100 μl/well). After centrifuging at 350×g for 1 minute at 4° C., the supernatant was discarded. Then, 50 μl of the immunocyte staining buffer containing 10 μg/ml of an hIL-5R α antibody were added to each well and reacted at 4° C. for 30 minutes. After the reaction, the immunocyte staining buffer was added (200 μl/well) and centrifuged at 350×g for 1 minute at 4° C. and then the supernatant was removed to wash the cells. The washing operation was further repeated twice. Thereafter, 50 μl of the immunocyte staining buffer containing FITC-labeled anti-mouse immunoglobulin antibody or FITC-labeled anti-human immunoglobulin antibody (both manufactured by Wako Pure Chemical Industries, Ltd.) diluted 30 folds with a staining buffer were added to each well and reacted at 4° C. for 30 minutes. After the reaction, a similar washing operation was repeated three times. Then, the cells were analyzed with a flow cytometer (Coulter).

[2] = target: T1, human IL-5R α chain expressed on cells; assay: immunocyte staining, flow cytometry on CTLL-2(h5R) cells
Method: as §1

binding result [1]: binds
B1: anti-human IL-5R α chain human CDR-grafted antibody KM8399 (antibody, human IgG1, V domains shown)
VH: EVQLVQSGAEVKKPGASVKVSCKASGYTFTSYVIHWVRQRPGQGLAWMGYINPYNDGTKYNERFKGKVTITSDRSTSTVYMELSSLRSEDTAVYLCGREGIRYYGLLGDYWGQGTLVTVSS
VL: DIQMTQSPSSLSASVGDRVTITCGTSEDIINYLNWYQQKPGKAPKLLIYHTSRLQSGVPSRFSGSGSGTDFTLTISSLQPEDFATYYCQQGYTLPYTFGQGTKVEIK
notes: also called HV.3LV.0; pKANTEX1259HV3LV0

binding result [1]: binds
B2: anti-human IL-5R α chain human CDR-grafted antibody KM9399 of human antibody IgG4 subclass (antibody, V domains shown)
VH: B1 VH
VL: B1 VL
notes: Same V regions as KM8399 (built from pKANTEX1259HV3LV0); also called pKANTEX1259HV3LV0γ4; transformant KM9399 (FERM BP-5647)

binding result [2]: binds
B3: anti-human IL-5R α monoclonal antibody KM1257 (antibody, V domains shown)
VH: EVQLVESGGDLVKPGGSLKLSCAASGFTFSDYGMAWIRQISDKRPEWVAAISSGGSYIHFPDSLKGRFTVSRDNAKNTLYLEMSGLKSEDTAMYYCARRGFYGNYRAMDYWGQGTSVTVSS
VL: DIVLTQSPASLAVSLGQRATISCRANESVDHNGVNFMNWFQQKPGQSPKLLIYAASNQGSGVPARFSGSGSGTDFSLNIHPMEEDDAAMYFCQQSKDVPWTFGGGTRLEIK
notes: Mouse IgG1; also called hybridoma KM1257 (FERM BP-5133)
